Reference: patent US20040248787A1

Target: normal MITF (M type), expressed from plasmid pSU063 (MITF-M/pCDNA3) in COS7 cells (UniProt Q08874)
Assay: cell-based or functional assay

Chain of UniProt Q08874 (Q08874 other isoform, or with tags, fused parts or gaps limits assumed): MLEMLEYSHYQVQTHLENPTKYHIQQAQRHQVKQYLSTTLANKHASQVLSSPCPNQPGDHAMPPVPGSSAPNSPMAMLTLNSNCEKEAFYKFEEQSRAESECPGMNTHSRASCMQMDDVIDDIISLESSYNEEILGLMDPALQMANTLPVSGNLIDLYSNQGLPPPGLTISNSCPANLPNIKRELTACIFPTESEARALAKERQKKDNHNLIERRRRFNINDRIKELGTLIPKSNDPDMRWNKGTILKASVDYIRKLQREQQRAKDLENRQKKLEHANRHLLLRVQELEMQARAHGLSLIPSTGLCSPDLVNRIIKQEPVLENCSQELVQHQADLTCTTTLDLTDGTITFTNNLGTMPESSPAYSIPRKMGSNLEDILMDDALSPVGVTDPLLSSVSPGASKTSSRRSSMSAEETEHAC

Substance | Luciferase activity (c-kit promoter R-luc reporter in COS7 cells, PBS addition taken as 1) (relative to PBS = 1)
His Tag-PTD-wh variant of MITF (from UniProt Q08874 119-526) | 0.72
His Tag-PTD-mi variant of MITF (from UniProt Q08874 119-526) | 0.92
